Results from the supplement of paper PMC9170038.

Test system: MS2 coat protein
Experiment: apparent KD of MS2 coat protein; designed switch direction (-1 OFF switch, 1 ON switch): -1; higher = weaker reporter binding
Summary of the method: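 Transcription of designed RNA switches on Illumina chips was done by stalled E. coli RNA polymerase. SNAP-549-labelled MS2 coat protein was then titrated in doubling steps from 0.7 or 1.5 nM to 3 µM, with steps of 0.8–1.5 h at the lowest and 10–20 min at the highest concentration. The per-design median over clusters of curve-fitted normalised fluorescence is reported as apparent KD.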

[1] = Eterna round: R95, input ligand: FMN 200 uM
[2] = Eterna round: R95, input ligand: microRNA oligo, concentration not stated
[3] = Eterna round: R95, input ligand: none
[4] = input ligand: microRNA oligo, concentration not stated

Row | Sequence | apparent KD of MS2 coat protein [1] | apparent KD of MS2 coat protein [2] | apparent KD of MS2 coat protein [3] | apparent KD of MS2 coat protein (input ligand: FMN 200 uM) | apparent KD of MS2 coat protein (input ligand: none) | apparent KD of MS2 coat protein [4]
1 | GAACGCCGGCAGGAUAUGGACAGCCAAAAGGCGCCAGAAGGGCCAACAUGAGGAUCACCCAUGUGUCCUGAUGG [Riceanon] (puzzle: Exclusion 6) | 0.0109 µM | 0.00846 µM | 0.0103 µM | – | – | –
2 | GUCGCUAGAGGAUAUACAAUGGUAUAUGAUCCUAGUGACAUACAUGAGGAUCACCCAUGUAGAAGGCUAGUAAU [Exclusion 2 - 7] (puzzle: Exclusion 2) | – | 0.0248 µM | – | – | – | –
3 | GAAUAGAGAGGAUAUGCGAUGUAGGUAGUACGAUAUAUCUGACAUGAGGAUCACCCAUGUAGAAGGCUCAGAUC [EX2 #6] (Eterna round: R97, puzzle: Exclusion 2) | – | – | – | 0.0339 µM | 0.0364 µM | –
4 | AGCCUCGCUGUUAGGAUAUGCAUGGAUAAGCUCCGGCAGAAGGGACAUGAGGAUCACCCAUGUAACGUAGUUUA [BmEX4 B.4] (Eterna round: R97, puzzle: Brourd's mod of Exclusion 4) | – | – | – | 0.0318 µM | 0.0252 µM | –
5 | UACACGGGAGGAUAUACGUAGAUGCAGGUUCGUGUGGUGCUACAUGAGGAUCACCCAUGUAGAAGGCCCAACGU [Mod 4 R3 JL-ex2-2.29] (Eterna round: R97, puzzle: Exclusion 2) | – | – | – | 0.0263 µM | 0.0234 µM | –
6 | UAUAUAUAGUAAGGAUAUGUAUUUAUUUAAUAAACAGAAGGUACUGACAUGAGGAUCACCCAUGUUUUAGUGUGGGCAUGUAGA [JMF's solution 19] (Eterna round: R96, puzzle: Exclusion NG 1) | – | – | – | – | – | 0.0663 µM
7 | AGGUGCUUCAGGAGACAUGAGGAUCACCCAUGUUGAGUUAGCGAGGAUAUCGGUAACCAUUGUGAUGAGAAGGCGCAAACCAGA [Ex NG3 #44] (Eterna round: R96, puzzle: Exclusion NG 3) | – | – | – | 0.0605 µM | 0.0473 µM | 0.0156 µM
8 | GGCAGACAUGAGGAUCACCCAUGUCAGGAUAUGGUGCGAUCGUCGAUAGACGAUAGCACCAGAAGGGACAUGCC [Mat - Exclusion 1 - Eli Mod - D3] (Eterna round: R97, puzzle: Exclusion 1) | – | – | – | 0.0397 µM | 0.0214 µM | –
9 | UAACAUGUACAAGGAUAUCAGCACGUUUAGUGCUGAGAAGGUGUAACAUGAGGAUCACCCAUGUAGAUCAUUAAUUAAUUAAUU [ENG1/9-B2] (Eterna round: R96, puzzle: Exclusion NG 1) | – | – | – | 0.244 µM | 0.102 µM | 0.12 µM
10 | GCAGGAUAAGUGAGGAUAUACCUAUGGAUACAUAGGUAGAAGGUACAUGAGGAUCACCCAUGUUCCUCACCUGC [Fiskers BMX 4 - 64] (puzzle: Brourd's mod of Exclusion 4) | – | 0.0101 µM | – | – | – | –
11 | GCUGCGCGAGGAUAUGCGGUUUGUGCUUUGGCCCAUGGCGUACAUGAGGAUCACCCAUGUAGAAGGCGUGUGGG [Apr-15 SS2-52] (puzzle: Exclusion 2) | – | 0.012 µM | – | – | – | –
12 | ACUAAACAUGUAGGAUAUGCGUGGCGAAGCUAUGCAGAAGGACAUGAGGAUCACCCAUGUUUUAGCGUCUGCGUACAGAUGCGU [JL ENG1 1.44] (Eterna round: R96, puzzle: Exclusion NG 1) | – | – | – | 0.2 µM | 0.0227 µM | 0.0175 µM
13 | UAGGUGUGAGGAUAUGGUAAAGAAAAGAUGAUGAAAGAACUCCAGAAGGCACAUGAGGAUCACCCAUGUAGAUG [Mat - Exclusion 4 - Mod of JL - D32] (puzzle: Exclusion 4) | – | 0.0287 µM | – | – | – | –
14 | GAGAAGGUAGGAUAUACGAAGAAAGAGGGUAGGAAGAAUACACAUGAGGAUCACCCAUGUAGAAGGACCAAGAG [Mat - Exclusion 2 - Mod of my Tesla design - D47] (puzzle: Exclusion 2) | 0.0329 µM | 0.0178 µM | 0.023 µM | – | – | –
15 | UUAAUUAAUGUCAGGAUAUCUAGAGCUUCGGCUCUAGAGAAGGGACAUGAGGAUCACCCAUGUCACUCUUAAUU [BmEx4/3-C1] (Eterna round: R97, puzzle: Brourd's mod of Exclusion 4) | – | – | – | 0.0211 µM | 0.0151 µM | –
16 | ACAUGAGGAUCACCCAUGUAAUGAAGGGUACUAUACUAAACGUAGGAUAUCGAUGUAAGAUUGUACGAGAAGGACGAUUGCCUU [JR_ExcNG3_Sub051] (Eterna round: R96, puzzle: Exclusion NG 3) | – | – | – | – | – | 0.0293 µM
17 | UUGUUAUGUGUAGGAUAUGCGUGUUAUUAUUAUGCAGAAGGACAUGAGGAUCACCCAUGUGUAUUGUUAUUAUAUAUUAUAUAU [Title] (Eterna round: R96, puzzle: Exclusion NG 1) | – | – | – | 0.021 µM | 0.0208 µM | 0.0132 µM

Row | Sequence | apparent KD of MS2 coat protein [1] | apparent KD of MS2 coat protein [2] | apparent KD of MS2 coat protein [3] | apparent KD of MS2 coat protein (input ligand: FMN 200 uM) | apparent KD of MS2 coat protein (input ligand: none) | apparent KD of MS2 coat protein [4]
18 | AAAUAAACAAGCAACUCGAACAUGAGGAUCACCCAUGUAAAGGGUGAAUCGUCCACCCAAAAAAAAAAUAAAAAAAA [Mat - Sensor v2 - Eli mod - 132] (Eterna round: R96, puzzle: Sensor v2, turn-off variant) | – | – | – | 0.0577 µM | 0.0559 µM | 0.116 µM
19 | AGCUGUGGCCGAGGAUAUACACAUGAGGAUCACCCAUGUAGGCGCGGAUACGCGCUAAAAUAAAUGUAGAAGGCGGUCUCAGCA [Eli eng2 - 055] (Eterna round: R96, puzzle: Exclusion NG 2) | – | – | – | 0.00706 µM | 0.0118 µM | 0.005 µM
20 | CCCGCAGGCUUUUUGCUCGACAUGAGGAUCACCCAUGUUGAAUGGGUUGUGUGUGUGUGAUACAUAUAUAUGGUCCU [-26.2, -50.8 kcal, A 19%] (Eterna round: R97, puzzle: Sensor, turn-off variant 1) | – | – | – | 0.242 µM | 0.349 µM | –
21 | AUUAUAAUAUAGGAUAUCGAAAUAAUUAUUUAACGAGAAGGAUGAACAUGAGGAUCACCCAUGUGGUAUCAUGG [Mat - Exclusion 6 - JL Mod - D33] (puzzle: Exclusion 6) | 0.16 µM | 0.36 µM | 0.224 µM | – | – | –
22 | AAAACGUCAGGAUAUACGAAAUAAAAUAAAAUAAAAUAAAAGUAGAAGGGACAUGAGGAUCACCCAUGUAAUAA [Exclusion 4 #1] (puzzle: Exclusion 4) | 0.0437 µM | 0.0266 µM | 0.0362 µM | – | – | –
23 | UUCAUGUGAGGAUAUUAGUAGUAAAUAAAUAAAAUUAUUACUGAGAAGGUACAUGAGGAUCACCCAUGUUCCUU [Salish 062 v22] (Eterna round: R97, puzzle: Exclusion 4) | – | – | – | 0.0185 µM | 0.0139 µM | –
24 | GCCUCACUUGAGGAUCACCCAAGUCAGGAUAUUCACUGAACUACGUAGCAGUUCGGCCGAAGAAGGGAUUCGGG [Azaraqu] (Eterna round: R97, puzzle: Exclusion 1) | – | – | – | 0.0445 µM | 0.0951 µM | –
25 | AAGGAACGAGGAUAUGCAGGUUGAGCUCGAGUUCGACCGGAACAUGAGGAUCACCCAUGUAGAAGGUGUAUCCC [Vedibe] (puzzle: Exclusion 2) | – | 0.024 µM | – | – | – | –
26 | GGAUCGUAUGUCAGGAUAUACCACUGGAUACAGUGGUAGAAGGGACAUGAGGAUCACCCAUGUUCUAUCGAUCC [Fiskers BMX 4 - 53] (puzzle: Brourd's mod of Exclusion 4) | – | 0.0125 µM | – | – | – | –
27 | AGGCACUAAGGAUAUACAAAGGUGCUGCGUAUGCUAGCCAGACAUGAGGAUCACCCAUGUAGAAGGUAGGAAUA [EX2 B.14] (Eterna round: R97, puzzle: Exclusion 2) | – | – | – | 0.0164 µM | 0.0168 µM | –
28 | UUAGGCGUCUUUGCUCGUCUUAUUUGGAGAUGACUGUUAACAUGAGGAUCACCCAUGUGUGUGGGAGCUUUGCAGUU [JR_SV3TOV2_Sub022] (puzzle: Sensor v3, turn-off variant 2) | 0.215 µM | 0.377 µM | 0.271 µM | – | – | –
29 | GUAAAAUAAGCUUAUUUACACAUGAGGAUCACCCAUGUAUUGGACGGACUCCUGACCUCAAUUAUAUGCUCGUAUCG [Eternabot (L1) Solution 41] (Eterna round: R97, puzzle: Sensor, turn-off variant 1) | – | – | – | 0.0776 µM | 0.0795 µM | –
30 | UGUUGUCGCGCAGGAUAUGAGGAUCACCCAUAUAGAGGAUAUGAAAAGAAGGCUCUGAGGAUCACCCAGAAGGGCGGGACAACU [pwkr exNG2 2xF5 2xFMN.23] (Eterna round: R96, puzzle: Exclusion NG 2) | – | – | – | 1.39 µM | 0.222 µM | 0.141 µM
31 | GGAGCGAUUCUCUUAGUUAACAUGAGGAUCACCCAUGUGUACAAGCUCUUAUUUUGCUCGUCUUACCGAGAGUUGCC [Tienve] (puzzle: Sensor v3, turn-off variant 1) | 0.0226 µM | 0.0743 µM | 0.0247 µM | – | – | –
32 | ACUUAUUGAGGAUAUACAGAUUAUUACAUGAGGAUCACCCAUGUUCUUCAAUGUAUAUAUGUAGAAGGCAGAGGAU [Mat - Exclusion 5 - JL Mod - D13] (Eterna round: R97, puzzle: Exclusion 5) | – | – | – | 0.221 µM | 0.0737 µM | –
33 | GUCAGCUCGUGAGGAUAUACAUGAGGAUCACCCAUGUGGUCAUUAGCAGCUUCGGCUGCAUUAAUGUAGAAGGCACGAGCUGAC [ENG2/8-A1] (Eterna round: R96, puzzle: Exclusion NG 2) | – | – | – | 0.635 µM | 1.14 µM | 0.69 µM
34 | ACCUAACAUGAGGAUCACCCAUGUCAGGAUAUCCGGCCUAUGGAAACAUAGGAAGAACGGAGAAGGGACAGAGG [ChP 04-04-2015 #9] (puzzle: Exclusion 1) | 0.0695 µM | 0.035 µM | 0.0431 µM | – | – | –
